# According to paper PMC5426458, “A practical strategy to design and develop an isoform-specific fluorescent probe for a target enzyme: CYP1A1 as a case study” (Chemical Science, 2016):
# T1: CYP1A1 (Homo sapiens, UniProt P04798)
# T1 construct: endogenous CYP1A1 in human tissue microsomes, A549 and SKOV3 cells
# T1 sequence (P04798 1-512): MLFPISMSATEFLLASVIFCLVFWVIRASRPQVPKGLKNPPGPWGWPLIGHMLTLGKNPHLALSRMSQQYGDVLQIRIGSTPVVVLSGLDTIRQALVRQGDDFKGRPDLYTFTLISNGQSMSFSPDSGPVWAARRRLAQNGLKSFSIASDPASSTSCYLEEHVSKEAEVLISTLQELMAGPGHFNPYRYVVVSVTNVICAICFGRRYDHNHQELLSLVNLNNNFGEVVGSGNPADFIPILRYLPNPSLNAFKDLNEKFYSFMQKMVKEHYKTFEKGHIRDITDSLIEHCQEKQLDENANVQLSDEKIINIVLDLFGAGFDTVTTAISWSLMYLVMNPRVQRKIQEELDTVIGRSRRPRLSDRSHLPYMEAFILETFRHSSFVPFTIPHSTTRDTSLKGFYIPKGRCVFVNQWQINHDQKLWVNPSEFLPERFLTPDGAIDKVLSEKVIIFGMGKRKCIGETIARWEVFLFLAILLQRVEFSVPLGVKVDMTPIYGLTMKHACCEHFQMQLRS
# Experiments:
# [1] = target: T1, CYP1A1; assay: inhibition of NBCeN-O-dechloroethylation in human tissue preparations and living cells ([…] in cells); assay type: cell-based
# [2] = substrate: CCCCN1C(=O)c2cccc3c(OCCCl)ccc(c23)C1=O; assay: purified protein; assay type: biochemical, Homo sapiens; settings: heme
molecule,measurement,setting,value
Oc1ccc(/C=C/c2cc(O)cc(O)c2)cc1 [resveratrol],inhibition of NBCeN-O-dechloroethylation in human tissue preparations and living,[1],formation of NBHN could be potently inhibited by ABT (a broad CYP inhibitor) and resveratrol (a selective inhibitor of CYP1A1)
"CYP1A1 (Homo sapiens) (protein, recombinant CYP1A1) MLFPISMSATEFLLASVIFCLVFWVIRASRPQVPKGLKNPPGPWGWPLIGHMLTLGKNPHLALSRMSQQYGDVLQIRIGSTPVVVLSGLDTIRQALVRQGDDFKGRPDLYTFTLISNGQSMSFSPDSGPVWAARRRLAQNGLKSFSIASDPASSTSCYLEEHVSKEAEVLISTLQELMAGPGHFNPYRYVVVSVTNVICAICFGRRYDHNHQELLSLVNLNNNFGEVVGSGNPADFIPILRYLPNPSLNAFKDLNEKFYSFMQKMVKEHYKTFEKGHIRDITDSLIEHCQEKQLDENANVQLSDEKIINIVLDLFGAGFDTVTTAISWSLMYLVMNPRVQRKIQEELDTVIGRSRRPRLSDRSHLPYMEAFILETFRHSSFVPFTIPHSTTRDTSLKGFYIPKGRCVFVNQWQINHDQKLWVNPSEFLPERFLTPDGAIDKVLSEKVIIFGMGKRKCIGETIARWEVFLFLAILLQRVEFSVPLGVKVDMTPIYGLTMKHACCEHFQMQLRS",Km,"[2]; NADPH active site, O-chloroethyl group cleaved, docking suggests pi-pi stacking with Phe-224",0.84 µM
"CYP1A2 (Homo sapiens) (protein, recombinant CYP1A2) ALSQSVPFSATELLLASAIFCLVFWVLKGLRPRVPKGLKSPPEPWGWPLLGHVLTLGKNPHLALSRMSQRYGDVLQIRIGSTPVLVLSRLDTIRQALVRQGDDFKGRPDLYTSTLITDGQSLTFSTDSGPVWAARRRLAQNALNTFSIASDPASSSSCYLEEHVSKEAKALISRLQELMAGPGHFDPYNQVVVSVANVIGAMCFGQHFPESSDEMLSLVKNTHEFVETASSGNPLDFFPILRYLPNPALQRFKAFNQRFLWFLQKTVQEHYQDFDKNSVRDITGALFKHSKKGPRASGNLIPQEKIVNLVNDIFGAGFDTVTTAISWSLMYLVTKPEIQRKIQKELDTVIGRERRPRLSDRPQLPYLEAFILETFRHSSFLPFTIPHSTTRDTTLNGFYIPKKCCVFVNQWQVNHDPELWEDPSEFRPERFLTADGTAINKPLSEKMMLFGMGKRRCIGEVLAKWEIFLFLAILLQQLEFSVPPGVKVDLTPIYGLTMKHARCEHVQARLRFSIN",Km,[2]; NADPH,0.81 µM
